This is an account of results in patent US20240084003A1 (SIMCERE ZAIMING PHARMACEUTICAL, published 2024).

Where a chain is given by its changes, count along the chain named.

B1: F1.257.3 (antibody, human IgG1, kappa, V domains shown)
VH: QVQLQQSGPELARPGASVKLSCKASGYTFTSYGISWVKQRTGQDLEWIGEIYPKLGTTYYNEKFKDKATLTTDRSSSTAYMALRSLTSEDSAVYFCACPHYYATRGGDYWGQGTTLTVSS
VL: EIVLTQSPATLSVTPGDSVTFSCRASQSISNHLHWYQQKSHESPRLLIRYASQSISGIPSRFSGSGSGTDFTLSLSSVETEDFGVYFCQQSHSWPYTFGGGTKLEIAR
notes: Human-murine chimeric IgG1, kappa
B2: F2.55.1 (antibody, human IgG1, lambda, V domains shown)
VH: QVTLKESGPGILQPSQTLSLTCSFSGFSLSTFPLGVGWIRQPSGKGLEWLAHVWWNDDDYYNPALKSRLTISKDTSNTRVFLSVASVDTAETATYYCARLNWDRWYFDVWGTGTTVTVSS
VL: QLVLTQSSSASFSLGASAKLTCTLSSQHSAYTVEWYQQQPLKPPKYVMELKKDGSHSTGDGIPDRFSGSSSGADRYLSISNIQPEDEAIYICGVGDTVKEQFVFGGGTKVTVLG
notes: Human-murine chimeric IgG1, lambda
B3: F2.343.16 (antibody, human IgG1, lambda, V domains shown)
VH: QVQLKQSGPGLVQPSQSLSITCTVSGFSLTGYGVQWVRQSPGKGLEWLGVIWGGGGTDYNAAFISRLNIIKDNSKSQVFFKMNSLQADDTAIYYCARYSKYGHFDVWGTGTAVTVSS
VL: QAVVTQESALTTSPGETVTLTCRSSTGAVTTSNYANWVQEKPDHLFTGLIGGTYNRVPGVPARFSGSLIGDKAALTITGAQTEDEAIYFCALWYSNHFWVFGGGTKLTVLG
notes: as for B2
B4: F2.205.9 (antibody, human IgG1, lambda, V domains shown)
VH: QVTLKESGPGILQPSQTLSLTCSFSGFSLSTSGMGVGWIRQPSGKGLEWLAHIWWDDDEYYNPALKSRLTISKDTSKNQVFLKIANVDTADTATYYCARISIPYGYYDWFFDVWGTGTTVTVSA
VL: QAVVTQESALTTSPGETVTLTCRSSTGAVTTRNYANWVQEKPDHLFTGLIGGTNNRAPGVPARFSGSLIGDKAALTITGAQTEDEAIYFCALWYSNHFIFGSGTKVTVLG
notes: as for B2
B5: F2.70.2 (antibody, human IgG1, lambda, V domains shown)
VH: EVQLVESGGGLVKPGGSLKLSCAASGFTFSDYGMNWFRQAPEKGLEWVAYISRGSHTIYYADTVKGRFTISRDNAKNTLFLQMTSLRSNDTAMYYCVRMAGYYAMDYWGQGTSVTVSS
VL: QLVLTQSSSASFSLGASAKLTCTLSSQHSSYIIEWYQQQPLKPPKYVMELKKDGSHSTGDGIPDRFSGSSSGADRYLSISNIQPEDEAIYICGVGDTIKEQFVYVFGGGTKVTVLG
notes: as for B2
B6: F2.104.10 (antibody, human IgG1, lambda, V domains shown)
VH: B5 VH with L11F, K76E, V114L
VL: B5 VL with L50V, P84S
notes: as for B2
B7: F1.280.1 (antibody, human IgG1, kappa, V domains shown)
VH: QIQLVQSGPELKKPGETVKISCKASGYTFTTYGMSWVKQTPGKGLTWMGWINTDSGVPTYADDFKRRFAFSLEASATTAYLQINNLKNEDTATYFCARGGPDYWGQGTTLTVSS
VL: DILLTQSPATLSVTPGETVSLSCRASQSIYKNLHWYHQKSHRSPRLLIKYASDSISGIPSRFTGSGSGTNFTLSINSVKPEDEGIYYCLQGYIVPLTFGAGTKLELKR
notes: as for B1
B8: F1.245.2 (antibody, human IgG1, kappa, V domains shown)
VH: EVQLQQSGAELVKPGASVKLSCTGSGFNIKDYYIHWVKQRTEQGLEWMGRIDPEDGETEYAPKFQDEATITSDTSSNTAYLQLSSLTYEDTAVYYCAREAAGYFYRGSSYGYFDVWGTGTTVTVSS
VL: DFQMTQTTSFLSASLGDRVTISCSASQDISNYLNWYQQKPDGTVKLLIYYTSSLHSGVPSRFSGSGSGTDYSLTISNLEPEDIATYYCQQYSMLPYTFGGGTKLEMER
notes: as for B1
B9: F1.60.9 (antibody, human IgG1, kappa, V domains shown)
VH: QVQLKESGPGLVAPSQSLSITCTVSGLSLNNYGVSWVRQPPGKGLEWLGVIWGDGSTNYHSALISRLSISKDNSKSQVFLKLNSLHTDDTATYYCAINWGDYWGQGTTLIVSS
VL: DIKMTQSPSSMNASLGERVTITCKASQDINSYLSWFQQKPGKSPKILIYRANRLIDGVPSRFSGSGSGQDYSLTISSLEYEDMGIYYCLQYGVFPLTFGAGTKLELKR
notes: as for B1

The target of one test is T1, human CD22-ECD-His protein (human, UniProt P20273 20-687).
T1 construct: Made in house in HEK293E; also called hCD22-ECD-His; recombinant human CD22-ECD His protein; not shown: His tag
T1 sequence: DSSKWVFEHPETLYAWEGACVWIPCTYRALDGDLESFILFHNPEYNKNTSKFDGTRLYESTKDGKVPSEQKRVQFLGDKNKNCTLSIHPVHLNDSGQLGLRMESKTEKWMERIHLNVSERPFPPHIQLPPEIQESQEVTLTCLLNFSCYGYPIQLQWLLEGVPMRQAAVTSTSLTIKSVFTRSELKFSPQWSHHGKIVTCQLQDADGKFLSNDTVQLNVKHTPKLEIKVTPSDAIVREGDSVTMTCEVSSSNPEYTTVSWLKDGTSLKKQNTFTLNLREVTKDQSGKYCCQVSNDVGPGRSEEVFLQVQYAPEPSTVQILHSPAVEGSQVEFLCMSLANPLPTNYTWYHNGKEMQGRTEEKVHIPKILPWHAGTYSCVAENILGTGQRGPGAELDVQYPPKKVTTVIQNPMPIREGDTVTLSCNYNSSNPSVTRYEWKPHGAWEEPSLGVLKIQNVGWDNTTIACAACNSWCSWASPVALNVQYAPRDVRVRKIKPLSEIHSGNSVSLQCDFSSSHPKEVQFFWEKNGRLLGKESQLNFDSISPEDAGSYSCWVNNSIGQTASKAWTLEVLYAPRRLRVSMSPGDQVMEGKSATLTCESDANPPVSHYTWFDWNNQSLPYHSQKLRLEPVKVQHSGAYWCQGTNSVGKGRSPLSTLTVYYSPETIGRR
The test can be described thus: ELISA, Ab 0.00001 nM. Put shortly: (§1)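 Human CD22-ECD-His is adsorbed overnight at 4 °C (2 μg/mL) and blocked with 2% BSA in PBS for 2 h. Chimeric antibody binding proceeds 2 h at 37 °C, followed by HRP-labeled secondary antibody under identical conditions and TMB detection.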
(An ELISA detects its analyte on a solid surface through an enzyme-linked reagent.)
Consider B1, for which the OD450 came to 0.2 OD450.
With B2, the OD450 was 0.16 OD450.
Take B3: the OD450 was 0.18 OD450.
The same measure, in the same setting: the result for B4 reads 0.19 OD450.
The same measure, in the same setting: then B5, with 0.09 OD450; and B6, with 0.22 OD450; and B7, with 0.13 OD450.
Molecule B8 came in with an OD450 of 0.22 OD450.
For B9, the OD450 was determined as 0.09 OD450.

The target in another test is T1, human CD22-ECD-His protein. The test can be described thus: ELISA, Ab 0.001 nM. Put shortly:
as §1
In turn, B1 showed an OD450 of 0.6 OD450.
On the same count and under the same terms, the result for B2 reads 0.44 OD450.
B3 gave an OD450 of 0.43 OD450.
B4 returned an OD450 of 0.4 OD450.
As to B5, the OD450 came to 0.57 OD450.
On to B6, for which the OD450 worked out at 0.66 OD450.
Same read-out and setting: then B7, with 0.81 OD450; and B8, with 1.24 OD450; and B9, with 0.47 OD450.

Another test concerns the target T1, human CD22-ECD-His protein. The experiment in a line: ELISA, Ab 100.00 nM. Put shortly:
as §1
Take B1: the OD450 came to 2.83 OD450.
Still for that read-out and setting: then B2, with 2.08 OD450; and B3, with 1.94 OD450; and B4, with 2.22 OD450.
The same measure, in the same setting: the result for B5 reads 2.24 OD450; that for B6, 2.44 OD450; that for B7, 2.46 OD450.
Still for that read-out and setting: then B8, with 2.7 OD450; and B9, with 2.82 OD450.

For a further test, the target named is T1, human CD22-ECD-His protein. The experiment in a line: ELISA, human CD22-ECD-His coated. The method, boiled down: as §1
As usually defined, the EC50 (read off the curve) is the concentration needed to bring the measured effect to its halfway point. High values mean a less potent agent, low ones a more potent agent. On to B1, for which the “EC50 (read off the curve)” value was around 0.06 nM.
Still for that read-out and setting: then B2, with around 0.06 nM; and B3, with around 0.06 nM.
The same measure, in the same setting: the result for B4 reads around 0.06 nM; that for B5, around 0.03 nM.
B6: the “EC50 (read off the curve)” value is around 0.03 nM.
On the same count and under the same terms, the result for B7 reads around 0.02 nM; that for B8, around 0.01 nM; that for B9, around 0.05 nM.
